This assay has as its target T1, Bax-ω GAL4-transactivation domain hybrid (plasmid Bax-ω-GAL424) (yeast; human).
T1 chain: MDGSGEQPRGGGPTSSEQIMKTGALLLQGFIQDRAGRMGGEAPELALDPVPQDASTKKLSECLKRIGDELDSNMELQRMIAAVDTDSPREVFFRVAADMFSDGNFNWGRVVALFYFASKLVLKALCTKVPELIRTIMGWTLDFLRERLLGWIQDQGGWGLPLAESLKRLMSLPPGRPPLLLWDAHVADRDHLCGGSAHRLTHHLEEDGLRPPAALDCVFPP
The experiment in a line: yeast two-hybrid: β-galactosidase filter assay (SFY526) and growth in the absence of histidine (HF7C); (-) means white signal / no growth.

B1: Bax-ω GAL4-DNA binding domain hybrid (plasmid Bax-ω-pAS1) (other)
chain: T1 chain
Take B1: the binding result is listed as “no binding”.

(Values after US5770690, “Bax omega protein and methods” (Neurex Corporation, dated 1998).)
